Reference: the nanobody polyreactivity screen of Harvey et al. (2022)

assay: yeast display, Sf9 membrane polyspecificity reagent, FACS + sequencing; frameworks hold sequencing errors
Method in brief: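 After 36–48 hours of galactose induction, yeast (Saccharomyces cerevisiae BJ5465) displaying a synthetic nanobody library were stained at 4 °C for 1 hour with 10% biotinylated, detergent-solubilized Sf9 membrane reagent. Streptavidin microbeads enriched the stained cells before FACS sorting into low and high (top ~1%) gates on anti-HA and streptavidin fluorescence. Each clone's polyreactivity label reflects its gate of origin.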

Sequence	polyreactivity (PSR sort gate)
QVQLVESGGGLVQAGGSLRLSCAASGFTFYRYTMGWYIQAPGKERELVAAISARGVSTYYADSVKGRFTISRDIAKNTVYLQMNSLKPEDTAVYYCYVSRYDSWGQGTQVTVSS	high polyreactivity
QVQLVESGGGLVQAGGSLRLSCAASGFTFYSNAMGWYRQAPGKERELVAAITGRGGRTYYADSVKGRFTISRDNAKNTVYLQMNSLKPEDTAVYYCAAVYHVSTWGGRYYFRQGYDYWGQGTQVTVSS	high polyreactivity
QVQLVESGGGLVQAGGSLRLSCAASGFTFYSNAMGWYRQAPGKERELVAAITSGGNTNYADSVKGRFTISRDNAKNTVYLQMNSLKPEDTAVYYCAAYPPSQRAEYDFWGQGTQVTVSS	low polyreactivity
QVQLVESGGGLVQAGGSLRLSCAASGFTFYSYAMGWYRQAPGKERELVAAISRSGTTTYYADSVKGRFTISRDNAKNTVYLQMNSLKPEDTAVYYCAARTTSSSLTPSLYYWGQGTQVTVSS	high polyreactivity
QVQLVESGGGLVQAGGSLRLSCAASGFTFYSYAMGWYRQAPGKERELVAAITKRGGSTSYADSVKGRFTISRDNAKNTVYLQMNSLKPEDTAVYYCNRRATKAQYGDEVDYWGQGTQVTVSS	high polyreactivity
QVQLVESGGGLVQAGGSLRLSCAASGFTFYSYAMGWYRQAPGKERELVAVISKRGGSTRYADSVKGRFTISRDNAKNTVYLQMNSLKPEDTAVYYCNADQHSITYNEFDYWGQGTQVTVSS	low polyreactivity
QVQLVESGGGLVQAGGSLRLSCAASGFTFYSYDMGWYRQAPGKERELVAVITERGSSTYYADSVKGRFTISRDNAKNTVYLQMNSLKPEDTAVYYCAAYSEYYGVYYWGQGTQVTVSS	low polyreactivity
QVQLVESGGGLVQAGGSLRLSCAASGFTFYTKAMGWYRQAPGKERELVAGINSGSSTYYADSVKGRFTISRDNAKNTVYLQMNSLKPEDTAVYYCAARRSRYILRGFGYWGQGTQVTVSS	high polyreactivity
QVQLVESGGGLVQAGGSLRLSCAASGFTFYTNAMGWYRQAPGKERDMVAVITSGGNTYYADSVKGRFTISRDNAKNTVYLQMNSLKPEDTAVYYFAAIPKRPIRFDYWGQGTQVTVSS	high polyreactivity
QVQLVESGGGLVQAGGSLRLSCAASGFTFYTNAMGWYRQATGKERELVAVITSGGNTYYADSVKGRFTISRDNAKYTVYLQMNSLKPEDTAVYYCAAKPKRPIRFDYWGQGTQVTVSS	high polyreactivity
QVQLVESGGGLVQAGGSLRLSCAASGFTFYTYAMGWYRQAPGKERELVAAITGSGGRTYYADSVKGRFTISRDNAKNTVYLQMNSLKPEDTAVYYCAALYVYRPRTPYGYWGQGTQVTVSS	high polyreactivity
QVQLVESGGGLVQAGGSLRLSCAASGFTFYTYAMGWYRQAPGKERELVAAITSSGGSTYYADSVKGRFTISRDHAKNTVYLQMNSLKPEDTAVYYCKAVSYYLGDDYWGPGTQVTVSS	high polyreactivity
QVQLVESGGGLVQAGGSLRLSCAASGFTFYVNAMGWYRQAPGKEREFVAAISSSGASTRYADSVKGRFTISRDNAKNTVYLQMNSLKPEDTAVYYCAADAPAWILEAYGYWGQGTQVTVSS	low polyreactivity
QVQLVESGGGLVQAGGSLRLSCAASGFTFYVNAMGWYRQAPGKERELVAAITDDGDSTYYADSVKGRFTISRDNAKNTVYLQMNSLKPEDTAVYYCNTVYGPDLYGTEYDYWGQGTQVTVSS	low polyreactivity
QVQLVESGGGLVQAGGSLRLSCAASGFTFYVYTMGWYRQAPGKERELVAAITWSGGSTYYADSVKGRFTISRDNAKNNVYLQMNSLKPEDTAVYYCNRVGYWVGHDSWGQGTQVTVSS	high polyreactivity
QVQLVESGGGLVQAGGSLRLSCAASGFTFYWYAMGWYRQAPGKERELVAAISNRGGSTYYADSVKGRFTISRDNAKNTVYLQMNSLKPEDTAVYYCATESRGVGAARYDYWGQGTQVTVSS	high polyreactivity
QVQLVESGGGLVQAGGSLRLSCAASGFTFYYYAMGWYRQAPGKERELVAAISGGGGSTYYADSVKGRFTISRDNAKNTVYLQMNSLKPEDTAVYYCAAVGSWRYNYDYDYWGQGTQVTVSS	high polyreactivity
QVQLVESGGGLVQAGGSLRLSCAASGFTFYYYAMGWYRQAPGKERELVAAISYSGGSTYYADSVKGRFTISRDNAKNTVYLQMNSLKPEDTAVYYCAALYTGESGYWGQGTQVTVSS	high polyreactivity
QVQLVESGGGLVQAGGSLRLSCAASGFTFYYYAMGWYRQAPGKERELVAAITKNGGRTFYADSVKGRFTISRDNAKNTVYLQMNSLKPEDTAVYYCATVGNWPDYYYWGQGTQVTVSS	high polyreactivity
QVQLVESGGGLVQAGGSLRLSCAASGFTFYYYAMGWYRQAPGKERELVASISSSGGSTYYADSVKGRFTISRDNAKNTVYLQMNSLKPEDTAGYYCARYRRRYDTYPGDYWGQGTQVTVSS	high polyreactivity
QVQLVESGGGLVQAGGSLRLSCAASGFTFYYYAMGWYRQATGKVRELVAAISARGGSTYYADSVKGRFTISRDNAKNTVYLQMNSLKPEDTAVYYCNAVTGHTSYEYDYWGQGTQVTVSS	high polyreactivity
QVQLVESGGGLVQAGGSLRLSCAASGFTGGRYAMGWYRQEPGKERELVDDISWSGGGTYYADSVKGRFTISRDNAKNTVYLQMNSLKPEDTAVYYCAAYWYRSYKRYGYWGQGTQVTVSS	high polyreactivity

Sequence	polyreactivity (PSR sort gate)
QVQLVESGGGLVQAGGSLRLSCAASGFTGVNAMGWYRQAPGKERELVARISNSGGSTYYADSVKGRFTISRDNAKNTVYLQMNSLKPEDTAVYYCNADSYYWGQGTQVTVSS	high polyreactivity
QVQLVESGGGLVQAGGSLRLSCAASGFTIAKYAMGWYRQAPGKERELVAAISSSGGRTYYADSVKGRFTISRDNAKNTVYLQMNSLKPEDTAVYYCAADFSGPFDYWGQGTQVTVSS	high polyreactivity
QVQLVESGGGLVQAGGSLRLSCAASGFTIAVYVMGWYRQAPGNERELVATISFSVGSTYYADSVKGRFTISRDNAKNTVYLLMNCLKPEVTAVYYCNADPPPEYYPDKDNSWGQGTQVTVSS	low polyreactivity
QVQLVESGGGLVQAGGSLRLSCAASGFTICTYAMGWYRQAPGKERELVAAIDSGGSTYYADSVMGRFTISRDNAKTTVYLQMNSLKPEDTAVYYCNAGPSVTSGYDYDYWGQGTQVTVSS	low polyreactivity
QVQLVESGGGLVQAGGSLRLSCAASGFTIDKNVMGWYRQAPGKERELVAAISVRGGTTYYADSVKGRFTISRDNAKNTVYLQMNSLKPEDTAVYYCAARAYGPPARYDSWGQGTQVTVSS	low polyreactivity
QVQLVESGGGLVQAGGSLRLSCAASGFTIGDNAMGWSRQAPGKERELVAAITWSGGSTYYADSVKGRFTISRDNAKNTVYLQMNSLKPEDTAVYYCAADKLRELDYWGQGTEVTVSS	low polyreactivity
QVQLVESGGGLVQAGGSLRLSCAASGFTIGRYAMGWYRQAPGKERELVAAISKNGGRTYYADSVKGRFTISRDNAKNTVYLQMNSLKPEDTAVYYCNTDWYYTGRVHGFDYWGQGTQVTVSS	high polyreactivity
QVQLVESGGGLVQAGGSLRLSCAASGFTIGSYAMGWYRQAPGKEREFVAAIRRSGSSTYYADSVKGRFTISRDNAKNTVYLQMNSLKPEDTAVYYCAADVYRRLRRYRYYYWGQGTQVTVSS	low polyreactivity
QVQLVESGGGLVQAGGSLRLSCAASGFTIISYTMGWYRQAPGKDRELVAAIRGGGRTYYADSVKGRFTISRDNAKNTVYLQMNSLKPEDTAVYYCAARLRYGGHYDYWGQGTQVTVSS	high polyreactivity
QVQLVESGGGLVQAGGSLRLSCAASGFTINFYSLGWYRQAPGKERELVAAITASGGGSTYYADSVKGRFTISRDNAKNTVYLQMNSLKQEDTAVYYCNADFTGSFYTYEYWGQGTQVTVAS	low polyreactivity
QVQLVESGGGLVQAGGSLRLSCAASGFTIQRYAMGWYRQAPGKERELVAAITSGGSTYYADSVKGSFTISRDNAKNTVYFQMNSLKPEDTSVYYCATRAVWSSWGRRYDSWGQGTQVTVSS	high polyreactivity
QVQLVESGGGLVQAGGSLRLSCAASGFTIRRNAMGWYRQAPGKERELVAAISRSGGSTYADSVKGRFTISRDNAKNTVYLQMNSLKPEDTAVYYFASDHSDYRYTYTALIAEFYYWGQGTQVTVSS	low polyreactivity
QVQLVESGGGLVQAGGSLRLSCAASGFTIRSYVMGWYRQAPGKERELVAAIRRSGGSTYYADSVKGRFTISRDNAKNTVYLHMNSMKPEDTAVYYCAAKAYTYYARIGFDYWGQGSQVTVSS	high polyreactivity
QVQLVESGGGLVQAGGSLRLSCAASGFTIRSYVMGWYRQAPGKERELVAAIRRSGGSTYYADSVKGRFTISRDNAKNTVYLQMNSLKPEDTAVYYCAVGARWYWSYYWGQGTQVTVSS	high polyreactivity
QVQLVESGGGLVQAGGSLRLSCAASGFTIRWYTMGWYRQAPGKERELVAAISRGGSTNYADSVKGRFTISRDNAKNTVYLQMNSLKPEDTAVYYCNAVRGGRYGLDYWGQGTQVTVSS	high polyreactivity
QVQLVESGGGLVQAGGSLRLSCAASGFTIRWYTMGWYRQAPGKERELVAAITSGGGTYYADSVKGRFTISRDNAKNTVYLQMNILKPEDTAVYYCAARTLSVARRRPYYYWGQGTQVTGSS	high polyreactivity
QVQLVESGGGLVQAGGSLRLSCAASGFTIRYYAMGWYRQAPGKERELVAAIDWSGGSTYYADSVKGRFTISRDNAKNTVYLQINSLKPEDTAVYYCNVDFYDLYVYLWYVDYDYWGQGTQVTVSS	high polyreactivity
QVQLVESGGGLVQAGGSLRLSCAASGFTISLYTMAWYRQAPGKERELVASNTRRGGSTYYADSVKGRFTISRDYAKNTVYLQMNSLKTEDTAGYYCARAARSDSIFKPRRGYATDGYWGQVTQVTVSS	high polyreactivity
QVQLVESGGGLVQAGGSLRLSCAASGFTISPYAMGWYRQAPGKERELVAGITRNGGSTYYADSVKGRFTISRDNAKNTVYLQMNSLKPEDTAVYYCITKYAVEFDYWGQGTQVTVSS	low polyreactivity
QVQLVESGGGLVQAGGSLRLSCAASGFTISRNAMGWYRQAPGKERELVAAISQSGGSTYYADSVKGRFTISRDNAKNTVYLQMNSLKPEDTAVYYCAAQSFAQYGWRYGYWGQGTQVTVSS	high polyreactivity
QVQLVESGGGLVQAGGSLRLSCAASGFTISRYAIGWYRQAPGKERELVAAITGSGGSTYYADSVKGRFTISRDNAKNTVYLQMNSLKPEDTAVYYCNTLKHYKREYDYWGQGTQVTVSS	high polyreactivity
